Reference: paper PMC9943680 (Nucleic Acids Research, 2023)
Changes are numbered by the printed parent chain. Values belong to the binder of their own block, whether it stands above or below them.

Assays:
[1] = molecular target: T1, TR4DBD-CTE R127C (Homo sapiens, UniProt P49116 113-200, R127C); assay: MST
T1 sequence: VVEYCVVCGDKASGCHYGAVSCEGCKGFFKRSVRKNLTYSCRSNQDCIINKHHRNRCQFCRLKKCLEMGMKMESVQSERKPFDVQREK

[2] = molecular target: T2, TR4DBD-CTE N167K (Homo sapiens, UniProt P49116 113-200, N167K); assay: MST
T2 sequence: T1 sequence with C15R, N55K

[3] = molecular target: T3, TR4DBD-CTE R191A (Homo sapiens, UniProt P49116 113-200, R191A); assay: MST
T3 sequence: T1 sequence with C15R, R79A

[4] = molecular target: T4, TR4DBD-CTE S189A (Homo sapiens, UniProt P49116 113-200, S189A); assay: MST
T4 sequence: T1 sequence with C15R, S77A

[5] = molecular target: T5, TR4DBD-CTE R168A (Homo sapiens, UniProt P49116 113-200, R168A); assay: MST
T5 sequence: T1 sequence with C15R, R56A

[6] = molecular target: T6, TR4_(341–596), ligand-binding domain of human testicular receptor 4 (human, UniProt P49116 341-596); assay: crystal structure
T6 sequence (looked up): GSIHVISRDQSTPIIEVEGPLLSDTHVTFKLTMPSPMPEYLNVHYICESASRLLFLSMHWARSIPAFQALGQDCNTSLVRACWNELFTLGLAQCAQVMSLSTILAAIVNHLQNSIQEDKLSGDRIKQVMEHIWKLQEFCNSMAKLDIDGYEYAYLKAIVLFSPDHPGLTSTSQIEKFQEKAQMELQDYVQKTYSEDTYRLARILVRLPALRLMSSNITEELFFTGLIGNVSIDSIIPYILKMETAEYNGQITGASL

[7] = molecular target: T7, TR4DBD (Homo sapiens, UniProt P49116 113-189); assay: MST
T7 sequence: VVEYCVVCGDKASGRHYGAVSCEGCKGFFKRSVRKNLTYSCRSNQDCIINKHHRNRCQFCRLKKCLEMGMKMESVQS

B1: idRE, 23 bp DR1 (dsDNA)
DNA 1: GGCAGAGGTCAAAGGTCAAACGT
DNA 2: ACGTTTGACCTTTGACCTCTGCC
binding signal [1]: ~280 fold increase vs WT
binding signal [2]: > 60 fold increase vs WT
binding signal [3]: ~60 fold decrease vs WT
binding signal [4]: 12 fold decrease vs WT
binding signal [5]: 12 fold decrease vs WT

binding result [6]: binds
Binder: QQPTYVALSYINRFMTDAARREQES (domain or fragment, human, UniProt Q86VZ6 51-75, looked up) [JAZF1_(51–75)]

B2: 18 bp DR1 (dsDNA)
DNA 1: GGCAGAGGTCAAAGGTCA
DNA 2: CTGACCTTTGACCTCTGC
Kd [7]: 38.3 µM
